Assay results taken from publication PMC3334620.

Target: T1, Ecm22 (Saccharomyces cerevisiae) (UniProt Q05958)
T1 sequence: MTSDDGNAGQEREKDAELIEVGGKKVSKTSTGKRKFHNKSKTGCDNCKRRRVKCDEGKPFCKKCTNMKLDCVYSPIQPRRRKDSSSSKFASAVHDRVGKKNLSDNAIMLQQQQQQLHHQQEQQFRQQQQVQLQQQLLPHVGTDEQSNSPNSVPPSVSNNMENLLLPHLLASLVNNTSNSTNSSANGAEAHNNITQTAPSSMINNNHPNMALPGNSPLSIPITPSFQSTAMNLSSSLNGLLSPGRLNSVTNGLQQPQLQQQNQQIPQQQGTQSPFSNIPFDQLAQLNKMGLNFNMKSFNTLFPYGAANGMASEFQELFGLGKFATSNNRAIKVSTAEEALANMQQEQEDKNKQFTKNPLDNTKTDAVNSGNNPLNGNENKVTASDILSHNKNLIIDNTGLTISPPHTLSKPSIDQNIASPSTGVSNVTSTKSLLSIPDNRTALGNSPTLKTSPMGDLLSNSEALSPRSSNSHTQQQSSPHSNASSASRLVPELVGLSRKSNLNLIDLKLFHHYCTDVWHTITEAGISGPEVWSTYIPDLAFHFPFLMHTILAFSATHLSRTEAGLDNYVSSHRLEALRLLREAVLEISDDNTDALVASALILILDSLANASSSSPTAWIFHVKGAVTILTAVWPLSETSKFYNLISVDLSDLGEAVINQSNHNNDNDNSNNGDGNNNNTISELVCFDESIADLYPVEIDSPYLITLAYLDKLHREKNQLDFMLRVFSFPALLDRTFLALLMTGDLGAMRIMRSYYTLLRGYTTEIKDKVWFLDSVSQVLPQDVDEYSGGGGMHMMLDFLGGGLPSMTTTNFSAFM
Details: 200 nM

| Sequence | binding signal (PBM E-score (-0.5 to 0.5)) |
| --- | --- |
| GGTACGAC (double strand) [8-mer GGTACGAC] | 0.495 |
| AGGAACGA (double strand) [8-mer AGGAACGA] | 0.495 |
| CTCGTACC (double strand) [8-mer CTCGTACC] | 0.496 |
| CGGAACGA (double strand) [8-mer CGGAACGA] | 0.493 |
| AGGTACGA (double strand) [8-mer AGGTACGA] | 0.495 |
| CTCGTTCC (double strand) [8-mer CTCGTTCC] | 0.496 |

Target: T2, Hmlalpha2 (Saccharomyces cerevisiae) (UniProt P0CY09)
T2 sequence: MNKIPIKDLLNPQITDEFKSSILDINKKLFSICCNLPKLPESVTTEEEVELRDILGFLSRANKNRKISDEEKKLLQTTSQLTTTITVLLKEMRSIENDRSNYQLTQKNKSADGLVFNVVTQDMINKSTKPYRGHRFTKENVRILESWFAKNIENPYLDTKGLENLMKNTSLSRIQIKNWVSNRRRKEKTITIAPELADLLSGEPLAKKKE
Details: 200 nM

| Sequence | binding signal (PBM E-score (-0.5 to 0.5)) |
| --- | --- |
| AATTACAT (double strand) [8-mer AATTACAT] | 0.489 |
| CTTTACAC (double strand) [8-mer CTTTACAC] | 0.489 |
| CCATGTAA (double strand) [8-mer CCATGTAA] | 0.486 |
| CATGTTAA (double strand) [8-mer CATGTTAA] | 0.489 |
| ATTACATA (double strand) [8-mer ATTACATA] | 0.488 |
| ATTACACG (double strand) [8-mer ATTACACG] | 0.495 |
| TGTGTAAA (double strand) [8-mer TGTGTAAA] | 0.489 |
| TATGTAAA (double strand) [8-mer TATGTAAA] | 0.49 |
| ACATGTAA (double strand) [8-mer ACATGTAA] | 0.488 |
| CCGTGTAA (double strand) [8-mer CCGTGTAA] | 0.486 |
| ATTACACA (double strand) [8-mer ATTACACA] | 0.492 |
| CGTGTAAA (double strand) [8-mer CGTGTAAA] | 0.493 |
| TCGTGTAA (double strand) [8-mer TCGTGTAA] | 0.49 |
| ATTACATG (double strand) [8-mer ATTACATG] | 0.495 |
| CATGTAAA (double strand) [8-mer CATGTAAA] | 0.491 |

Target: T3, Mot3 (Saccharomyces cerevisiae) (UniProt P54785)
T3 sequence: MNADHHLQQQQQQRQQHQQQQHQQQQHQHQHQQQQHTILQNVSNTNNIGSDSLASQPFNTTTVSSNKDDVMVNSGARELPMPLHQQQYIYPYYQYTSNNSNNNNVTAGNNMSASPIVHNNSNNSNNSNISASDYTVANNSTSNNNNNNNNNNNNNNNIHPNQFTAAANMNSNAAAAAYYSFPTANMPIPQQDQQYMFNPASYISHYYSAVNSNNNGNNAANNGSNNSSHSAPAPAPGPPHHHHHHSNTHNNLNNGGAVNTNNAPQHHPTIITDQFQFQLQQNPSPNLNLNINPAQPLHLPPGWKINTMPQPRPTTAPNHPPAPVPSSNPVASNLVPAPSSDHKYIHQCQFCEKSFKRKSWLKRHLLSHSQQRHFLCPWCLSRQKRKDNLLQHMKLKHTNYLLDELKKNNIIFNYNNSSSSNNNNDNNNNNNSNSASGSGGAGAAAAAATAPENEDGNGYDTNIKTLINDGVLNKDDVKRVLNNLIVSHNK
Details: 200 nM

| Sequence | binding signal (PBM E-score (-0.5 to 0.5)) |
| --- | --- |
| CAGGCACG (double strand) [8-mer CAGGCACG] | 0.496 |
| GAAGGCAC (double strand) [8-mer GAAGGCAC] | 0.495 |
| CAGGCACC (double strand) [8-mer CAGGCACC] | 0.496 |
| AAGGCACC (double strand) [8-mer AAGGCACC] | 0.493 |
| GTGCCTGA (double strand) [8-mer GTGCCTGA] | 0.493 |
| AGGCACGC (double strand) [8-mer AGGCACGC] | 0.496 |
| AAGGCACG (double strand) [8-mer AAGGCACG] | 0.496 |
| GCAGGCAC (double strand) [8-mer GCAGGCAC] | 0.497 |
| ACAGGCAC (double strand) [8-mer ACAGGCAC] | 0.495 |
| GTAGGCAC (double strand) [8-mer GTAGGCAC] | 0.495 |
| CGTGCCTA (double strand) [8-mer CGTGCCTA] | 0.495 |
| CAGGCACA (double strand) [8-mer CAGGCACA] | 0.493 |
| GCAGGCAA (double strand) [8-mer GCAGGCAA] | 0.493 |
| AAAGGCAC (double strand) [8-mer AAAGGCAC] | 0.495 |
| ACGTGCCT (double strand) [8-mer ACGTGCCT] | 0.494 |

Target: T4, Gcr1 (Saccharomyces cerevisiae) (UniProt P07261)
T4 sequence: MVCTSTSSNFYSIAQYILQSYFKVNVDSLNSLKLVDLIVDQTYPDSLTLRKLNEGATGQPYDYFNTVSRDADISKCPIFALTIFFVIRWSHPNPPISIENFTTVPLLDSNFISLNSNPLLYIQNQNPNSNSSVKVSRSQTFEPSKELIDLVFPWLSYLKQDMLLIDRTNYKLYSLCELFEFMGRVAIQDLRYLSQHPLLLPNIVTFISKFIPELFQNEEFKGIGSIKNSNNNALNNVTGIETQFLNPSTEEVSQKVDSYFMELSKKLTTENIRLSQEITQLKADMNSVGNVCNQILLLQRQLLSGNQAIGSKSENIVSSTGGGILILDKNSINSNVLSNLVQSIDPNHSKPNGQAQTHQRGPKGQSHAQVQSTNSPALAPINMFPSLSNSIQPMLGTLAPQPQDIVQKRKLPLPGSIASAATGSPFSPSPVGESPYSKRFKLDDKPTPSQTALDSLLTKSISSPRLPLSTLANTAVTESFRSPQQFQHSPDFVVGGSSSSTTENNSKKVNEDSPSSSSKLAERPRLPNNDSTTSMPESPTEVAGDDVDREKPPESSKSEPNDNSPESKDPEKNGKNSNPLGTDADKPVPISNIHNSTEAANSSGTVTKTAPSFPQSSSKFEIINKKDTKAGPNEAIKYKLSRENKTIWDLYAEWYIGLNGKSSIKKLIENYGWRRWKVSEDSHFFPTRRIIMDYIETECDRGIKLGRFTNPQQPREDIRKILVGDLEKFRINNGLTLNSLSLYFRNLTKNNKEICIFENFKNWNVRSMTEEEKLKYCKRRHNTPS
Details: 100 nM

| Sequence | binding signal (PBM E-score (-0.5 to 0.5)) |
| --- | --- |
| AGCATCCT (double strand) [8-mer AGCATCCT] | 0.465 |
| CAGCGTCC (double strand) [8-mer CAGCGTCC] | 0.465 |
| GAGCTTCC (double strand) [8-mer GAGCTTCC] | 0.469 |
| AGGAAGCC (double strand) [8-mer AGGAAGCC] | 0.487 |
| GGAAGCCA (double strand) [8-mer GGAAGCCA] | 0.48 |
| AGCTTCCT (double strand) [8-mer AGCTTCCT] | 0.485 |
| AGGATGCC (double strand) [8-mer AGGATGCC] | 0.47 |
| GGAATCCA (double strand) [8-mer GGAATCCA] | 0.473 |
| GGCTTCCA (double strand) [8-mer GGCTTCCA] | 0.483 |
| CGGCTTCC (double strand) [8-mer CGGCTTCC] | 0.472 |
| GGCATCCA (double strand) [8-mer GGCATCCA] | 0.469 |
| GGATTCCA (double strand) [8-mer GGATTCCA] | 0.476 |
| GGAATCCC (double strand) [8-mer GGAATCCC] | 0.464 |
| GGAAGCCC (double strand) [8-mer GGAAGCCC] | 0.473 |
| GCTTCCTA (double strand) [8-mer GCTTCCTA] | 0.468 |

Target: T5, Msn1 (Saccharomyces cerevisiae) (UniProt P22148)
T5 sequence: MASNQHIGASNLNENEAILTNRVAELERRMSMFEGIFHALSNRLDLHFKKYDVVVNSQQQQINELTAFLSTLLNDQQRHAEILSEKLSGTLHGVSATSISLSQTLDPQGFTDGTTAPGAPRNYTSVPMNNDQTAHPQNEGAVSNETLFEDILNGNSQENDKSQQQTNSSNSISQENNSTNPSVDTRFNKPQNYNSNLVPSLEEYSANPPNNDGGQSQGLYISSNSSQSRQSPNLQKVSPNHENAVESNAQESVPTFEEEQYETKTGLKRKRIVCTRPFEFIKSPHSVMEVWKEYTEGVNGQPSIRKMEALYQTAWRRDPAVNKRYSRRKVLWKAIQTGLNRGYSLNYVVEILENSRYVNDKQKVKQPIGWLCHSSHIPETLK
Details: 200 nM

| Sequence | binding signal (PBM E-score (-0.5 to 0.5)) |
| --- | --- |
| ATATGTCC (double strand) [8-mer ATATGTCC] | 0.496 |
| AGGACATA (double strand) [8-mer AGGACATA] | 0.494 |
| TGGACAAA (double strand) [8-mer TGGACAAA] | 0.493 |
| ATTTGTCC (double strand) [8-mer ATTTGTCC] | 0.498 |
| GAATGTCC (double strand) [8-mer GAATGTCC] | 0.494 |
| ATGTCCTA (double strand) [8-mer ATGTCCTA] | 0.497 |
| AAATGTCC (double strand) [8-mer AAATGTCC] | 0.498 |
| AATGTCCA (double strand) [8-mer AATGTCCA] | 0.493 |
